Test results published in patent US20240294622A1 (SUZHOU TRANSCENTA THERAPEUTICS, published 2024).

T1: HGREM1-His (ACRO) (human, UniProt O60565 25-184)
T1 construct: Lys25-Asp184 of NP_037504 with C-terminal polyhistidine tag (ACRO GR1-H52H3); they are put here; also called hGREM1 (ACRO); human gremlin (ACRO)
T1 sequence: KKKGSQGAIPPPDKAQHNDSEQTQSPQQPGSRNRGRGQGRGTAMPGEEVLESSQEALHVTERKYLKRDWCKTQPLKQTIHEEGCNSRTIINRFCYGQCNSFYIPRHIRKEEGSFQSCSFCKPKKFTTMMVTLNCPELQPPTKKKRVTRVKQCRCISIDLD


Each binder was assayed against T1, HGREM1-His (ACRO) (assay: ELISA, binding to hGremlin-his).

| EC50 | Binder |
| --- | --- |
| 0.0167 µg/mL | Hu22F1_HdLa (antibody, V domains shown) VH: QAQLVQSGAEVKKPGASVKVSCKASGYSFTDYYMNWLRQAPGQGLEWIGDINPKDGDSGYSHKFKGRATLTVDKSTSTVYMELRSLRSEDTAVYYCASGFTTVVARGDYWGQGTTVTVSS VL: DVVMTQSPLSLPVTLGQPASISCKSSQSLLDSDGKTYLNWLQQRPGQSPRRLIYLVSKLDSGVPDRFSGSGSGTDFTLKISRVEAEDVGVYYCWQGTHFPYTFGGGTKVEIK |
| 1.04 µg/mL | Hu22F1_HbLa (antibody, V domains shown) VH: QVQLVQSGAEVKKPGASVKVSCKASGYSFTDYYMNWVRQAPGQGLEWMGDINPKDGDSGYSHKFKGRVTMTVDKSTSTVYMELSSLRSEDTAVYYCASGFTTVVARGDYWGQGTTVTVSS VL: DVVMTQSPLSLPVTLGQPASISCKSSQSLLDSDGKTYLNWLQQRPGQSPRRLIYLVSKLDSGVPDRFSGSGSGTDFTLKISRVEAEDVGVYYCWQGTHFPYTFGGGTKVEIK |
| 0.0103 µg/mL | Hu22F1_HdLb (antibody, V domains shown) VH: QAQLVQSGAEVKKPGASVKVSCKASGYSFTDYYMNWLRQAPGQGLEWIGDINPKDGDSGYSHKFKGRATLTVDKSTSTVYMELRSLRSEDTAVYYCASGFTTVVARGDYWGQGTTVTVSS VL: DVVMTQSPLSLPVTLGQPASISCKSSQSLLDSDGKTYLNWLQQRPGQSPRRLIYLVSKLDSGFPDRFSGSGSGTDFTLKISRVEAEDVGVYYCWQGTHFPYTFGGGTKVEIK |
| 0.0435 µg/mL | Hu22F1_HcLb (antibody, V domains shown) VH: QAQLVQSGAEVKKPGASVKVSCKASGYSFTDYYMNWVRQAPGQGLEWMGDINPKDGDSGYSHKFKGRVTLTVDKSTSTVYMELRSLRSEDTAVYYCASGFTTVVARGDYWGQGTTVTVSS VL: DVVMTQSPLSLPVTLGQPASISCKSSQSLLDSDGKTYLNWLQQRPGQSPRRLIYLVSKLDSGFPDRFSGSGSGTDFTLKISRVEAEDVGVYYCWQGTHFPYTFGGGTKVEIK |
| 0.094 µg/mL | Hu22F1_HbLb (antibody, V domains shown) VH: QVQLVQSGAEVKKPGASVKVSCKASGYSFTDYYMNWVRQAPGQGLEWMGDINPKDGDSGYSHKFKGRVTMTVDKSTSTVYMELSSLRSEDTAVYYCASGFTTVVARGDYWGQGTTVTVSS VL: DVVMTQSPLSLPVTLGQPASISCKSSQSLLDSDGKTYLNWLQQRPGQSPRRLIYLVSKLDSGFPDRFSGSGSGTDFTLKISRVEAEDVGVYYCWQGTHFPYTFGGGTKVEIK |

Second part, the binder before the results:

| Binder | EC50 |
| --- | --- |
| Hu14E3_HbLa (antibody, IgG1, V domains shown, humanized) VH: QIQLVQSGSELKKPGASVKVSCKASGYTFTTYGMAWMRQAPGQGLEWMGWINTLSGEPTYADDFKGRFAFSLDTSVSTAYLQISSLKAEDTAVYYCAREPMDYWGQGTMVTVSS VL: DVVMTQSPLSLPVTLGQPASISCKSSQSLLDSDGKTYLSWLQQRPGQSPRRLIYLVSKLDSGVPDRFSGSGSGTDFTLKISRVEAEDVGVYYCWQGAHFPLTFGQGTKLEIK | 0.006 µg/mL |
| Hu22F1_HcLa (antibody, V domains shown) VH: QAQLVQSGAEVKKPGASVKVSCKASGYSFTDYYMNWVRQAPGQGLEWMGDINPKDGDSGYSHKFKGRVTLTVDKSTSTVYMELRSLRSEDTAVYYCASGFTTVVARGDYWGQGTTVTVSS VL: DVVMTQSPLSLPVTLGQPASISCKSSQSLLDSDGKTYLNWLQQRPGQSPRRLIYLVSKLDSGVPDRFSGSGSGTDFTLKISRVEAEDVGVYYCWQGTHFPYTFGGGTKVEIK | 0.312 µg/mL |
| Hu22F1_HaLa (antibody, V domains shown, humanized 22F1 variant) VH: QVQLVQSGAEVKKPGASVKVSCKASGYSFTDYYMNWVRQAPGQGLEWMGDINPKDGDSGYSHKFKGRVTMTRDTSTSTVYMELSSLRSEDTAVYYCASGFTTVVARGDYWGQGTTVTVSS VL: DVVMTQSPLSLPVTLGQPASISCKSSQSLLDSDGKTYLNWLQQRPGQSPRRLIYLVSKLDSGVPDRFSGSGSGTDFTLKISRVEAEDVGVYYCWQGTHFPYTFGGGTKVEIK | 1.17 µg/mL |
| Hu14E3_HcLa (antibody, IgG1, V domains shown, humanized) VH: QIQLVQSGSELKKPGASVKVSCKASGSTFTTYGMAWMKQAPGQGLTWMGWINTLSGEPTYADDFKGRFAFSLDTSVSTAYLQISSLKAEDTAVYYCAREPMDYWGQGTMVTVSS VL: DVVMTQSPLSLPVTLGQPASISCKSSQSLLDSDGKTYLSWLQQRPGQSPRRLIYLVSKLDSGVPDRFSGSGSGTDFTLKISRVEAEDVGVYYCWQGAHFPLTFGQGTKLEIK | 0.0066 µg/mL |
| Hu14E3_HaLb (antibody, IgG1, V domains shown, humanized) VH: QVQLVQSGSELKKPGASVKVSCKASGYTFTTYGMAWMRQAPGQGLEWMGWINTLSGEPTYADDFKGRFVFSLDTSVSTAYLQISSLKAEDTAVYYCAREPMDYWGQGTMVTVSS VL: DVVMTQSPLSLPVTLGQPASISCKSSQSLLDSDGKTYLSWLQQRPGQSPRRLISLVSKLDSGVPDRFSGSGSGTDFTLKISRVEAEDVGVYYCWQGAHFPLTFGQGTKLEIK | 0.0056 µg/mL |
| Hu14E3_HbLb (antibody, IgG1, V domains shown, humanized) VH: QIQLVQSGSELKKPGASVKVSCKASGYTFTTYGMAWMRQAPGQGLEWMGWINTLSGEPTYADDFKGRFAFSLDTSVSTAYLQISSLKAEDTAVYYCAREPMDYWGQGTMVTVSS VL: DVVMTQSPLSLPVTLGQPASISCKSSQSLLDSDGKTYLSWLQQRPGQSPRRLISLVSKLDSGVPDRFSGSGSGTDFTLKISRVEAEDVGVYYCWQGAHFPLTFGQGTKLEIK | 0.0062 µg/mL |
| Hu22F1_HaLb (antibody, V domains shown) VH: QVQLVQSGAEVKKPGASVKVSCKASGYSFTDYYMNWVRQAPGQGLEWMGDINPKDGDSGYSHKFKGRVTMTRDTSTSTVYMELSSLRSEDTAVYYCASGFTTVVARGDYWGQGTTVTVSS VL: DVVMTQSPLSLPVTLGQPASISCKSSQSLLDSDGKTYLNWLQQRPGQSPRRLIYLVSKLDSGFPDRFSGSGSGTDFTLKISRVEAEDVGVYYCWQGTHFPYTFGGGTKVEIK | 0.117 µg/mL |
| Hu14E3_HcLb (antibody, IgG1, V domains shown, humanized) VH: QIQLVQSGSELKKPGASVKVSCKASGSTFTTYGMAWMKQAPGQGLTWMGWINTLSGEPTYADDFKGRFAFSLDTSVSTAYLQISSLKAEDTAVYYCAREPMDYWGQGTMVTVSS VL: DVVMTQSPLSLPVTLGQPASISCKSSQSLLDSDGKTYLSWLQQRPGQSPRRLISLVSKLDSGVPDRFSGSGSGTDFTLKISRVEAEDVGVYYCWQGAHFPLTFGQGTKLEIK | 0.0061 µg/mL |
